Test system: cells of the human embryonic stem cell line H1 differentiated to stage 6
Experiment: Real-time PCR gene expression profile of stage 6 cultures +/- activin A, enriched using a 40 μm filter
Type: cell-based
Details: 10 ng/ml activin A added at stage 6 for seven days, H1 cells passage 43, FIG. 4 panels a-f
Experimental: (1:30 dilution) coated dishes and exposed to RPMI medium supplemented with 2% BSA (Catalog#152401, MP Biomedical, Ohio), and 100 ng/ml activin A (R&D Systems, MN) plus 20 ng/ml WNT-3a (Catalog#1324-WN-002, R&D Systems, MN) plus 8 ng/ml of bFGF (Catalog#100-18B, PeproTech, NJ), for one day followed by treatment with RPMI media supplemented with 2% BSA and 100 ng/ml activin A plus 8 ng/ml of bFGF for an additional two days. Next the cultures were treated with DMEM/F12+2% BSA+50 ng/ml FGF7+0.25 μM Cyclopamine-KAAD (#239804, Calbiochem, CA) for two days, followed by four days incubation in DMEM/F12+1% B27 (Invitrogen, CA)+50 ng/ml FGF7+0.25 μM Cyclopamine-KAAD+2 μM Retinoic acid (RA) (Sigma, MO)+100 ng/ml of Noggin (R & D Systems, MN).
Cells were differentiated into pancreatic endocrine cells by incubating the cells in DMEM/F12+1% B27 (Invitrogen, CA)+100 ng/ml Noggin+1 μM DAPT (a gamma-secretase inhibitor) (Catalog#565784, Calbiochem, CA)+1 μM ALK5 inhibitor II (Catalog#616452, Calbiochem, Ca)+100 ng/ml of Netrin-4 (R&D Systems, MN) for three days followed by additional seven days incubation in DMEM/F12+1% B27 (Invitrogen, CA)+1 μM ALK5 inhibitor II (Calbiochem, Ca). […] At each stage cell number was calculated using a hemocytometer and RNA was collected for PCR analysis. […]

B1: activin A: a member of the TGF-β superfamily; TGF-β receptor agonist (R&D Systems, MN) (protein, UniProt P08476 311-426, looked up)
Inhibin beta A chain: GLECDGKVNICCKKQFFVSFKDIGWNDWIIAPSGYHANYCEGECPSHIAGTSGSSLSFHSTVINHYRMRGHSPFANLKSCCVPTKLRPMSMLYYDDGQNIIKKDIQNMIVEECGCS
expression of pancreatic endocrine markers (pdx-1, nkx6-1, Pax4, nkx2.2, insulin, glucagon): significantly boosted expression of all key pancreatic endocrine markers

Source: US9388387B2, “Differentiation of human embryonic stem cells” (Janssen Biotech, Inc., priority 2008, dated 2016)
